Test results taken from PMC2626662.

Columns and labels:
Assay in all cases: SPR
[1] = target: HLA-B*4402^EENL (human | not stated | Epstein-Barr virus)
[2] = target: HLA-B*4403^EENL (human | not stated | Epstein-Barr virus)
[3] = target: HLA-B*4405^EENL (human | not stated | Epstein-Barr virus)
DM1 TCR (human) = target: DM1 TCR (human)

| Substance | Kd [1] | Kd calc [1] | koff [1] | Kd [2] | Kd calc [2] | koff [2] | Kd [3] | Kd calc [3] | koff [3] | Kd (DM1 TCR (human)) |
| --- | --- | --- | --- | --- | --- | --- | --- | --- | --- | --- |
| DM1 TCR | 6.3 µM | 14 µM | 0.2 s⁻¹ | 9.4 µM | 16 µM | 0.25 s⁻¹ | 0.3 µM | 0.23 µM | 0.02 s⁻¹ | – |
| HLA-B*4405^EENL (from UniProt P61769 21-119) (peptide-MHC) | – | – | – | – | – | – | – | – | – | 1 µM |
